Test results as given in article PMC11861162.

Target: SHIVC109P7 gp140 protein (soluble Env) (HIV-1 subtype C (Env of SHIVC109P7))
Experiment: native gel or EMSA

SHIVC109P7 gp140 protein (soluble Env) (domain or fragment)
stoichiometry N: 3
